Experimental data taken from article PMC9835228 (Journal of Translational Medicine, 2023).

How the values were obtained:
[1] = tested on: SK-BR-3 tumors (HER2-positive); assay: Small-animal nanoScan SPECT/CT imaging in the SK-BR-3 tumor model; assay type: in vivo, female NOD SCID mice
Experimental: At 0.5, 1 and 2 h p.i., the mice were anesthetized by inhalation of 2% isoflurane and imaged using a nanoScan SPECT/CT system (Mediso Inc., Hungary) following a standard protocol. Briefly, the small-animal SPECT images were acquired with the technetium-99 m parameters (peak 140 keV with 20% width, frame time 25 s), and CT images were acquired with default settings (50 kVp, 0.67 mA, and rotation 210°, exposure time 300 ms). All SPECT/CT images were reconstructed and further analyzed by Fusion software (Mediso Inc., Hungary), including drawing volumes of interest on tumors and major organs as well as calculating the tumor uptake (%ID/cc) accordingly. […] Small-animal imaging of the monomer tracer ^99mTc-HP-rk was also conducted as a control.

[2] = Dosimetry estimation (OLINDA/EXM); design: species or system human; settings: for effective radiation dose to the body: 11.1 MBq/kg
Experimental: The dosimetry calculation was performed according to the European Association of Nuclear Medicine Dosimetry Guidance and calculated using OLINDA/EXM (version 1.1; Vanderbilt University). The radiation effective dose (mSv/MBq) of the main organs of the human body was estimated from the biodistribution data of the SK-BR-3 tumor models (Additional file 1: Table S1).
The radiation effective dose (mSv/MBq) of the main organs of the human body was estimated from the biodistribution data of the SK-BR-3 tumor model (Table S1).

[3] = radio-HPLC (Fig. 1B)
[4] = tested on: SK-BR-3 tumor (HER2-positive); settings: 0.5, 1 and 2 h p.i.; 0.37 MBq i.v.; 4 mice/group
Experimental: (§1) The animals were randomly chosen for in vivo assays when the tumor size reached 100–150 mm^3 (1–2 weeks after inoculation).
(§2) Each mouse was injected with 0.37 MBq (~ 0.03 µg) of tracer to evaluate the distribution of the probe in tumors and major organs (4 mice/group). The mice were sacrificed and dissected at 0.5, 1 and 2 h p.i. Blood, tumor, liver, kidney and other major organs were collected and weighed, and their radioactivity was counted in a Wallac 1480 γ-counter (Perkin-Elmer, Waltham, MA). […] All biodistribution data are presented as the percentage of injected dose per gram of tissue (%ID/g).

[5] = tested on: HER2 expression in breast tumors
Experimental: (§3) The wrist or elbow on the same side as the healthy breast was selected for injection. […] On PET images, the volumes of interest (VOIs) were drawn over tumors using a 40% threshold, and the software automatically obtained the radioactivity concentration and the maximum and the mean standardized uptake values (SUVmax and SUVmean, respectively). T/B ratios were calculated from SUVmean values for further analysis. The contralateral breast tissue was considered the background for calculations. For semiquantitative analyses of SPECT images, the same VOI method as above was adopted to obtain the maximum and the average count values (Countsmax and Countsavg, respectively) of the breast tumors. The Countsavg value was compared between the tumor region and the contralateral region to obtain the T/B ratio. Calculations were performed using SPSS 23.0 software (IBM SPSS, Chicago, IL, USA) and GraphPad Prism 8 (GraphPad Software, San Diego, CA 92,108). After surgery, HER2 expression status was evaluated by IHC in tumor pathological sections of all 34 patients. For patients with an IHC score of HER2 (2 +), FISH was further performed.
(§4) Quantitative data were expressed as the mean ± SD. Statistical analysis of image parameters and biodistribution was performed with Student’s t test in Prism 7.0 (GraphPad Software, Inc., USA). P < 0.05 was considered statistically significant. Correlation analysis of the SUV data of clinical images and the IHC results was performed with SPSS Statistics 23.0 software (IBM SPSS, USA). The correlation between the SPECT T/B ratio and HER2 status was evaluated by Wilcoxon’s rank sum test. Spearman’s rank correlation analysis was performed on the SPECT T/B ratio and the immunoreactivity score. ROC curve analysis was performed to determine an optimal cutoff value for detecting HER2-positive (2 + , 3 +) breast cancer and to compare the diagnostic performance of different methods.

[6] = 1.85 MBq i.v., blood 1-240 min p.i., γ-counter, seven mice, fitted in Prism 7.0
Experimental: Blood was drawn through the orbit of the mouse at 1, 3, 8, 15, 30, 60, 90, 120, 180, and 240 min p.i. The radioactivity was counted in a γ-counter, and the percentage injected dose per gram of blood (%ID/g) at each time point was calculated. The slow half-life and fast half-life were analyzed and calculated by Prism 7.0.

[7] = 74 MBq i.v., n = 5
Experimental: Ten 4-week-old female ICR mice were randomly divided into the experimental and control groups. The mice were numbered, weighed and photographed. […] The mice in the control group were injected with the same volume of saline. After 120 h, the mice were photographed again, their body weight was recorded, and the behavioral differences were observed. After the mice were sacrificed, they were dissected to observe the morphological differences in the organs.

[8] = in vivo; settings: female, NOD SCID, mouse, tumor (SK-BR-3 xenograft), iv, 0.37 MBq, total radioactivity
Experimental: as §1, §2

[9] = in vivo; settings: female, NOD SCID, mouse, tumor (MCF7 xenograft), 0.37 MBq, total radioactivity
Experimental: as §1, §2

[10] = in vivo; settings: female, NOD SCID, mouse, tumor (MDA-MB-468 xenograft), 0.37 MBq, total radioactivity
Experimental: as §1, §2

[11] = clinical; settings: female, human, in vivo, iv, 11.1 MBq per kilogram body weight, total radioactivity, mean ± SD
Experimental: as §3, §4

[12] = In vivo metabolic stability (urine, radio-HPLC); settings: ~37 MBq i.v., mouse urine collected p.i. (2 h, b63; 0.5 h for ^99mTc-H10F in Fig. S3)
[13] = Female, OLINDA/EXM 1.1, from mouse SK-BR-3 biodistribution
[14] = Male, OLINDA/EXM 1.1, from mouse SK-BR-3 biodistribution

## CC(C)C[C@@H](NC(=O)[C@@H](CCCNC(=N)N)NC(=O)[C@@H](CC(C)C)NC(=O)[C@@H](CCC(=O)O)NC(=O)[C@@H](Cc1c[nH]c2ccccc12)NC(=O)[C@@H](CC(N)=O)NC(=O)[C@@H](CCCNC(=N)N)NC(=O)CCCCCCCNC(=O)CC[C@H](NC(=O)CCOCCOCCOCCOCCNC(=O)c1ccc(NN=Cc2ccccc2S(=O)(=O)O)nc1)C(=O)NCCCCCCCC(=O)N[C@H](CCCNC(=N)N)C(=O)N[C@H](CC(N)=O)C(=O)N[C@H](Cc1c[nH]c2ccccc12)C(=O)N[C@H](CCC(=O)O)C(=O)N[C@H](CC(C)C)C(=O)N[C@H](CCCNC(=N)N)C(=O)N[C@H](CC(C)C)C(=O)N[C@H](CCCCN)C(=O)O)C(=O)N[C@H](CCCCN)C(=O)O [^99mTc-HP-Ark2, metal not drawn]
[1]; SK-BR-3 model, 0.5 h p.i.
  imaging intensity in tumors compared with monomer tracer: stronger than that of ^99mTc-HP-rk
[1]; blocking dose 25 mg/kg rk, 0.5 h p.i.
  tumor uptake on imaging with coinjected cold rk peptide: significantly blocked tumor uptake
[1]; blocking dose 30 mg/kg trastuzumab, 0.5 h p.i.
  tumor uptake on imaging with coinjected cold trastuzumab: did not block tumor uptake
[1]; ~37 MBq i.v., 0.5, 1 and 2 h p.i., subcutaneous or in situ, tumors as small as ~20 mm^3
  tumor visualization by SPECT/CT: clearly visualized
[2]; 50 kg females
  effective radiation dose to the body: ~5.72 mSv
[2]; 65 kg males
  effective radiation dose to the body: approximately 6.62 mSv
[2]; [13]
  Effective Dose Equivalent, Adrenals: 5.36E-04 mSv/MBq
  Effective Dose Equivalent, Brain: 0.00E+00 mSv/MBq
  Effective Dose Equivalent, Breasts: 4.44E-05 mSv/MBq
  Effective Dose Equivalent, Gallbladder Wall: 2.60E-04 mSv/MBq
  Effective Dose Equivalent, Heart Wall: 0.00E+00 mSv/MBq
  Effective Dose Equivalent, Kidneys: 7.87E-03 mSv/MBq
  Effective Dose Equivalent, LLI Wall: 0.00E+00 mSv/MBq
  Effective Dose Equivalent, Liver: 0.00E+00 mSv/MBq
  Effective Dose Equivalent, Lungs: 1.90E-04 mSv/MBq
  Effective Dose Equivalent, Muscle: 0.00E+00 mSv/MBq
  Effective Dose Equivalent, Osteogenic Cells: 6.07E-05 mSv/MBq
  Effective Dose Equivalent, Ovaries: 2.49E-04 mSv/MBq
  Effective Dose Equivalent, Pancreas: 3.43E-04 mSv/MBq
  Effective Dose Equivalent, Red Marrow: 2.27E-04 mSv/MBq
  Effective Dose Equivalent, Skin: 0.00E+00 mSv/MBq
  Effective Dose Equivalent, Small Intestine: 0.00E+00 mSv/MBq
  Effective Dose Equivalent, Spleen: 4.89E-04 mSv/MBq
  Effective Dose Equivalent, Stomach Wall: 0.00E+00 mSv/MBq
  Effective Dose Equivalent, Thymus: 0.00E+00 mSv/MBq
  Effective Dose Equivalent, Thyroid: 2.78E-06 mSv/MBq
  Effective Dose Equivalent, ULI Wall: 0.00E+00 mSv/MBq
  Effective Dose Equivalent, Urinary Bladder Wall: 0.00E+00 mSv/MBq
  Effective Dose Equivalent, Uterus: 0.00E+00 mSv/MBq
[2]; [14]
  Effective Dose Equivalent, Adrenals: 4.04E-04 mSv/MBq
  Effective Dose Equivalent, Brain: 0.00E+00 mSv/MBq
  Effective Dose Equivalent, Breasts: 3.64E-05 mSv/MBq
  Effective Dose Equivalent, Gallbladder Wall: 2.31E-04 mSv/MBq
  Effective Dose Equivalent, Heart Wall: 0.00E+00 mSv/MBq
  Effective Dose Equivalent, Kidneys: 7.26E-03 mSv/MBq
  Effective Dose Equivalent, LLI Wall: 0.00E+00 mSv/MBq
  Effective Dose Equivalent, Liver: 0.00E+00 mSv/MBq
  Effective Dose Equivalent, Lungs: 1.38E-04 mSv/MBq
  Effective Dose Equivalent, Muscle: 0.00E+00 mSv/MBq
  Effective Dose Equivalent, Osteogenic Cells: 4.73E-05 mSv/MBq
  Effective Dose Equivalent, Pancreas: 2.81E-04 mSv/MBq
  Effective Dose Equivalent, Red Marrow: 1.94E-04 mSv/MBq
  Effective Dose Equivalent, Skin: 0.00E+00 mSv/MBq
  Effective Dose Equivalent, Small Intestine: 0.00E+00 mSv/MBq
  Effective Dose Equivalent, Spleen: 3.96E-04 mSv/MBq
  Effective Dose Equivalent, Stomach Wall: 0.00E+00 mSv/MBq
  Effective Dose Equivalent, Testes: 0.00E+00 mSv/MBq
  Effective Dose Equivalent, Thymus: 0.00E+00 mSv/MBq
  Effective Dose Equivalent, Thyroid: 2.27E-06 mSv/MBq
  Effective Dose Equivalent, ULI Wall: 0.00E+00 mSv/MBq
  Effective Dose Equivalent, Urinary Bladder Wall: 0.00E+00 mSv/MBq
  Effective Dose Equivalent, Uterus: 0.00E+00 mSv/MBq
[3]
  in vitro stability: excellent in vitro and in vivo stability
[4]
  tumor uptake compared with other organs: higher tumor uptake than uptake in other organs (except for kidneys)
[5]; 34 patients, ~11.1 MBq/kg i.v.
  adverse events related to tracer administration: No adverse events
[5]; patients with HER2-positive tumors and ipsilateral lymph node metastases (Nos. 4, 5, 7, 15, 24, 29)
  detection of metastatic lymph nodes: all 6 patients
[5]; quantified biodistribution from SPECT/CT, n = 34 (Fig. S10)
  kidney uptake in patients: high uptake
[6]
  fast half-life in blood: 3.12 min
  slow half-life in blood: 32.45 min
[7]; 120 h
  body weight after high-dose injection: did not decrease
  organ morphology after dissection: no abnormal organs
[7]; 120 h after injection
  behavior after high-dose injection: no abnormal behavior
[8]
  tissue uptake at 0.5 h: 3.99 ± 0.15 %ID/g
[9]
  tissue uptake at 0.5 h: 1.44 ± 0.08 %ID/g
[10]
  tissue uptake at 0.5 h: 1.08 ± 0.06 %ID/g
[11]; T/B ratio of HER2-negative tumors, IHC (2+) plus FISH+ or IHC (3+) criterion, n = 24
  tissue to tissue ratio at 0.5 h: 1.54 ± 1.03
[11]; T/B ratio of HER2-negative tumors, negative = IHC (0/1+), n = 17
  tissue to tissue ratio at 0.5 h: 1.16 ± 0.29
[11]; T/B ratio of HER2-positive tumors, positive = IHC (2+) or (3+), n = 19
  tissue to tissue ratio at 0.5 h: 2.49 ± 1.13
[11]; T/B ratio of HER2-positive tumors, positive = IHC (2+) plus FISH+ or IHC (3+), n = 12
  tissue to tissue ratio at 0.5 h: 2.5 ± 0.88
[12]
  in vivo metabolic stability: excellent in vitro and in vivo stability
